Measured values: publication PMC10983988

Molecular target: T1, m-TREX1 (Three Prime Repair Exonuclease 1, catalytic domain) (mouse, UniProt Q91XB0 1-242)
T1 sequence: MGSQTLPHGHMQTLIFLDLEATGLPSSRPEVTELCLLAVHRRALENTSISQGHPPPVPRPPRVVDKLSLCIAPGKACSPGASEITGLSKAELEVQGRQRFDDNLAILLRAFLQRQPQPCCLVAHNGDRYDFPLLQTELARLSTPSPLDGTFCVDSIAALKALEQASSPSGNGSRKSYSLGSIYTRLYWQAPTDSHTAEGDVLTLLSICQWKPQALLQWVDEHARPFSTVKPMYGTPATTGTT
Assay: fluorescence polarization anisotropy

Binder | Kd [nM]
U3 3'-processed (dsDNA) DNA 1: AGTGAATTAGCCCTTCCA DNA 2: ACTGGAAGGGCTAATTCACT | 216 ± 4.6
U3 unprocessed (dsDNA) DNA 1: AGTGAATTAGCCCTTCCAGT DNA 2: ACTGGAAGGGCTAATTCACT | 118 ± 8.4
